Laboratory results: patent US20160376333A1 (University of Washington, published 2016)
Positions count from the first letter of the chain named. Names and notes keep the numbering of the source.

How the values were obtained:
[1] = biological target: T1, human Bcl-w a.a. 1-182 with C-terminal avi-6his tag (human, UniProt Q92843 1-182); experiment: initial BLI screening (column 'Binds target?')
T1 construct: range 1-182; also called BCL2L2
T1 sequence: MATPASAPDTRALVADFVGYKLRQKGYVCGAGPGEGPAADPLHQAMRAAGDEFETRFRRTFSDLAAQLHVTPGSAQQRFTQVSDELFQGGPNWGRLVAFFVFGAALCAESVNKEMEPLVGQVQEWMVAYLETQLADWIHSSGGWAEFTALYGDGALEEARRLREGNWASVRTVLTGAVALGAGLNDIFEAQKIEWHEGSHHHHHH

[2] = biological target: T2, human Bcl-2 a.a. 1-207 with C-terminal avi-6his tag (human, UniProt P10415 2-207); experiment: BLI at a single analyte concentration (50 nM, 600 s association, then buffer); biotinylated BCL2 protein on a streptavidin sensor
[3] = biological target: T1, human Bcl-w a.a. 1-182 with C-terminal …; experiment: as above
[4] = biological target: T3, human Mcl-1 a.a. 172-327 with C-terminal avi-6his tag (human); experiment: as above
T3 chain: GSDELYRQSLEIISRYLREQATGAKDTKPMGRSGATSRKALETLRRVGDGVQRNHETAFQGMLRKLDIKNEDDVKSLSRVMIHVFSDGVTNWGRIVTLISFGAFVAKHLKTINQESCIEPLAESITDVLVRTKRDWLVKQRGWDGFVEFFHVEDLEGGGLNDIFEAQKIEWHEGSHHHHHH

[5] = biological target: T4, human Bcl-XL a.a. 1-205 with C-terminal avi-6his tag (human, UniProt Q07817 2-206); experiment: as above
T4 construct: also called BCL2L1

[6] = biological target: T3, human Mcl-1 a.a. 172-327 with …; experiment: yeast surface display titration (apparent KD)
[7] = biological target: T5, human Bfl-1 a.a. 1-153 (C4S) with C-terminal avi-6his tag (human); experiment: yeast surface display titration (apparent KD)
T5 construct: also called A1/Bfl-1
T5 chain: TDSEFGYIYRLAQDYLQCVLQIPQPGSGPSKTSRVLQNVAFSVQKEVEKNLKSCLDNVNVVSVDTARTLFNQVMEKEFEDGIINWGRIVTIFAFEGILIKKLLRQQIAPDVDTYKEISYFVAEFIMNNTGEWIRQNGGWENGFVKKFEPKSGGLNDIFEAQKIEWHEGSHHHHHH

[8] = biological target: T6, Epstein-Barr virus BHRF1 a.a. 1-161 with C-terminal avi-6his tag (Epstein-Barr virus); experiment: effect of the mutation on specificity (KD(BHRF1)/KD(Mcl-1) ratio): change in binding energy for BHRF1 minus that for Mcl-1, relative to BbpD04; assay not named on the sheet
T6 construct: also called EBV BHRF1; BHRF1-biotin
T6 chain: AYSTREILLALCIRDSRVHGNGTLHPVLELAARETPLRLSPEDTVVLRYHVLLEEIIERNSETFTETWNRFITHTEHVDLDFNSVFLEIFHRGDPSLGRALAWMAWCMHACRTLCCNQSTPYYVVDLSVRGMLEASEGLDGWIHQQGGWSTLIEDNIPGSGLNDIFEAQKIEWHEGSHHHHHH

[9] = biological target: T2, human Bcl-2 a.a. 1-207 with C-terminal …; experiment: yeast surface display titration; apparent binding constant (mean ± SE, n = 3-6)
[10] = biological target: T1, human Bcl-w a.a. 1-182 with C-terminal …; experiment: as above
[11] = biological target: T3, human Mcl-1 a.a. 172-327 with …; experiment: as above
[12] = biological target: T5, human Bfl-1 a.a. 1-153 (C4S) with …; experiment: as above
[13] = biological target: T4, human Bcl-XL a.a. 1-205 with C-terminal …; experiment: as above
[14] = biological target: T2, human Bcl-2 a.a. 1-207 with C-terminal …; experiment: yeast surface display titration (apparent KD)
[15] = biological target: T1, human Bcl-w a.a. 1-182 with C-terminal …; experiment: yeast surface display titration (apparent KD)
[16] = biological target: T4, human Bcl-XL a.a. 1-205 with C-terminal …; experiment: yeast surface display titration (apparent KD)
[17] = biological target: T2, human Bcl-2 a.a. 1-207 with C-terminal …; experiment: ratio of the KD of the next tightest BCL2 protein to the KD of the target, BLI
[18] = biological target: T2, human Bcl-2 a.a. 1-207 with C-terminal …; experiment: BLI, biotinylated target on streptavidin sensor, range of analyte concentrations
[19] = biological target: T1, human Bcl-w a.a. 1-182 with C-terminal …; experiment: as above
[20] = biological target: T4, human Bcl-XL a.a. 1-205 with C-terminal …; experiment: as above
[21] = biological target: T1, human Bcl-w a.a. 1-182 with C-terminal …; experiment: ratio of the KD of the next tightest BCL2 protein to the KD of the target, BLI
[22] = biological target: T3, human Mcl-1 a.a. 172-327 with …; experiment: BLI, biotinylated target on streptavidin sensor, range of analyte concentrations
[23] = biological target: T5, human Bfl-1 a.a. 1-153 (C4S) with …; experiment: as above
[24] = biological target: T7, human Bcl-B a.a. 11-175 with C-terminal avi-6his tag (human); experiment: as above
T7 construct: also called BCL2L10
T7 chain: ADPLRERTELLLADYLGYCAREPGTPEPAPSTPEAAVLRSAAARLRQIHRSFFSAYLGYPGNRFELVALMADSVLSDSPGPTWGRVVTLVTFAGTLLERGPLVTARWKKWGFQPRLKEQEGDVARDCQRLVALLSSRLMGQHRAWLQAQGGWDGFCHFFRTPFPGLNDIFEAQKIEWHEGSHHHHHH

[25] = biological target: T4, human Bcl-XL a.a. 1-205 with C-terminal …; experiment: ratio of the KD of the next tightest BCL2 protein to the KD of the target, BLI

B1: W-CDP01 (designed binder)
chain: DPKKVFDKAKDKAENQVRYLKQRLEELYKEARKKDLTQEQRRKLKEKYLAAKLAAILAAIGDAFNALAEARELHKQGKVNKQQLDELAKRLDRLAEEAIQKAEDYAREFAYKLEY
binding result [1]: binds

B2: W-CDP02 (designed binder)
chain: DPKKVLDKARDQALKRLEEMRKKLEESYKEARKKDLTQEERRKLEEKYAEAMKRAAEDIYNMIQQALKEAEKEKKAGQVNSQQLDKLREDLNNKLIAAALAAIGDAFNMAANLRT
binding result [1]: binds

B3: M-CDP02 (designed binder)
chain: ADPKKVLDKAKDQAENRVRELKQELEELYKEARKLDLTQEERRKLEESYIAAMLRAIGDIFNAIMQAKNEADKLKKAGLVNSQQLDELRRRLEELRKEASLKAEDYGREFQEKLEY
binding result [2]: binds
binding result [3]: binds
binding result [4]: binds
binding result [5]: binds

B4: BbpD04.3 (designed binder)
chain: ADWKKVLDKAKDIAENRVRELKQKLEEFYKEAMKLDLTQEMRRKLMLRWIAAMLMAIGDIFNAIRQAKQEADKLKKAGLVNSQQLDELKRRLEELKEEASRKARDYGREFQLKLEY
Kd [6]: 0.019 µM
Kd [7]: 0.032 µM

B5: E48R (designed binder)
designed protein: B4 chain with L21I, E31K, R65E, L79Q, Q84L, A103C, R104H
[..] ΔΔG BHRF1 - ΔΔG Mcl-1 [8]: -3.19 kJ/mol

B6: BbpD04.2 C103V (designed binder)
designed protein: B4 chain with A103V
Kd [9]: 0.0126 µM
Kd [10]: 0.0096 µM
Kd [11]: 0.0023 µM
Kd [12]: 0.019 µM
Kd [13]: 0.02 µM

B7: BbpD04.1 (designed binder)
chain: B4 chain with L21I, L79Q, Q84L, A103C, R104H
Kd [14]: 0.11 µM
Kd [15]: 0.014 µM
Kd [6]: 0.03 µM
Kd [16]: 0.025 µM

B8: 2-INDI (designed binder)
chain: ADPKKVLDKAKDEAENRVRELKQRLEELYKEARKLDLTQEMRQELVDKARAASLQANGDIFYAILRALAEAEKLKKAGLVNSQQLDELKRRLEELAEEARRKAEKLRDEFRLKLEY
notes: also called αBCL2
Specificity [17]: 2210 fold
Kd [18]: 0.000839 µM
Kd [19]: 1.85 µM
Kd [20]: 3.5 µM

B9: 2-CDP06 (designed binder)
chain: B8 chain with R24K, N57S, R107G
Specificity [17]: 190 fold
apparent Kd (pooled screen) [18]: 0.0089 µM
Kd [19]: 1.67 µM
Kd [20]: 12 µM

B10: W-CDP03 (designed binder)
chain: DPKKVFDEAKDRAENNVRRLKQKLEELYKEARKKDLTQEEREKLKEKYKTAMAAAALAAIGDAFNALLKARKLHKNGQVNEQQLEELARRLQELAKEAFQKAKDYANEFEYKLEY
Specificity [21]: 0.9 fold
Kd [18]: 0.0188 µM
apparent Kd (pooled screen) [19]: 0.008 µM
Kd [22]: 0.0553 µM
Kd [23]: 0.4 µM
Kd [20]: 0.00743 µM
Kd [24]: 0.4 µM

B11: WINDI (designed binder)
chain: B10 chain with A9L, E46T, A53Q, A54L, I60E, A63I, F64M, Q92M, E110K
notes: also called W-ECM01; αBCLW
Specificity [21]: 1590 fold
Kd [18]: 5.7 µM
Kd [19]: 0.00101 µM
Kd [20]: 1.61 µM

B12: XINDI (designed binder)
chain: ADPKKVLDKAKDRAENVVRKLKKELEELYKEARKLDLTQEMRDRIRRTAIAARFQAHGDIFHAIKHAKEEARKLKKAGLVNSQQLDELKRRLRELDEEAEQRAEKLGKEFRLKLEY
notes: also called X-ECM04; αBCLXL
Specificity [25]: 660 fold
Kd [18]: 3.7 µM
Kd [19]: 40 µM
Kd [20]: 0.00559 µM

B13: X-CDP07 (designed binder)
chain: ADPKKVLDKAKDRAENVVRKLKKELEELYKEARKLDLTQEMRDRIRLAAIAARIAAFGDIFHAIMEALEEARKLKKAGLVNSQQLDELKRRLEELDEEAAQRAEKLGKEFELKLEY
Specificity [25]: 6.46 fold
Kd [18]: 0.00381 µM
Kd [19]: 0.0149 µM
Kd [22]: 0.174 µM
apparent Kd (pooled screen) [20]: 0.00059 µM
Kd [24]: 0.107 µM
